Results as given in paper PMC9896067, “Peptide Supramolecular Assembly‐Instructed In Situ Self‐Aggregation for Stratified Targeting Sonodynamic Therapy Enhancement of AIE Luminogens” (Advanced Science, 2022).
Where a SMILES comes first, the peptide text is derived from it. The star is where a group is joined. X1 = O=C(c1cc(OCCCCCC(=O)*)cc(C(=O)c2ccc3ccc4cccc5ccc2c3c45)c1)c1ccc2ccc3cccc4ccc1c2c34

Assays:
[1] = system: 4T1 tumor‐bearing mice; experiment: In vivo and ex vivo fluorescence imaging / biodistribution; settings: DIR‐labelled, i.v. 2.4 µmol kg^−1, n = 3; for ex vivo distribution in tumor and major organs: 48 h postinjection
Method: For the fluorescence imaging and biodistribution assessment in vivo, DIR‐labelled nanosystem was prepared. Briefly, 2 µL of DIR stock solution (2 mM) was added to 1 mL of the PAHN. After stirring for 12 h, the DIR‐labelled nanosystem was finally obtained after dialyzing against deionized water using a dialysis bag (MWCO: 3500 Da) overnight to remove excess DIR. 4T1 tumor‐bearing mice (n = 3) were intravenously injected with DIR‐labelled (Ex/Em = 748 nm/780 nm) PAHN‐1 or PAHN‐2 at a dose of 2.4 µmol kg^−1. Fluorescence images were acquired at preinjection, and 0, 0.5, 1, 2, 6, 24 and 48 h postinjection by using a fluorescence imaging system (CRi Inc., USA). The tumor tissues and major organs were isolated and obtained for ex vivo imaging on the day of animal sacrifice. The corresponding fluorescence intensities were recorded.

[2] = system: 4T1 cells; experiment: CCK‐8 viability of 4T1 cells with or without US; format: cell-based, murine; settings: for survival of 4T1 cells: without US irradiation, various concentrations
Method: To determine the antitumor efficacy in vitro, the 4T1 cells were divided into the following 6 groups: i) control, ii) control + US, iii) BP + US, iv) PAHN‐3 + US, v) PAHN‐2 + US, and vi) PAHN‐1 + US. Then, the medium were replaced with the fresh medium containing corresponding formulations at different concentrations (30, 60, 120 µM). After 4 h of treatment, the cells were rinsed with PBS and then treated by US at an intensity of 3 W cm^−2 for 4 min. After that, the culture medium was replaced by a fresh serum‐free medium for another 4 h incubation. Finally, a standard CCK‐8 assay was used to evaluate the viability of the cells. The therapeutic effect was also detected by cellular apoptosis assay. In brief, the 4T1 cells were divided into the 6 groups as described above. Next, cells were treated with either BP, PAHN‐3, PAHN‐2, PAHN‐1 at a concentration of 120 µM, or PBS, followed by US irradiation. Finally, these cells were costained by a dye solution of calcein AM (2 µM) and PI (2 µM) or collected for apoptosis analysis using flow cytometry.

[3] = system: HUVECs; experiment: CCK‐8 cytotoxicity against HUVECs; format: cell-based, human; settings: without US
[4] = system: inoblast L929; experiment: CCK‐8 cytotoxicity against L929; format: cell-based; settings: without US
[5] = system: healthy mice; experiment: Biosafety of PAHN in vivo (H&E, routine blood, blood biochemistry); settings: i.v. 2.4 µmol kg^−1, 1, 3, 7, 14, 28 d postinjection, n = 5
Description: To investigate the short and long‐term biosafety of PAHN‐1 in vivo, PAHN‐1 at a dose of 2.4 µmol kg^−1 was intravenously injected into twenty five healthy mice that were sacrificed at predetermined time points (1, 3, 7, 14, and 28 d postinjection). Five healthy mice that were administrated with the saline solution served as the control group. The blood samples were then collected for biochemistry and routine blood examination. The main organs were stained with H&E.

Row | Structure (SMILES) | ex vivo distribution in tumor and major organs [1] | time of maximum fluorescence signal of the tumor region [1] | cell viability ([2]; 4T1 cells, + US 3 W cm^−2, 4 min after 4 h treatment, 30, 60, 120 µM tested, CCK‐8, n = 3) | viability of cells ([2]; 4T1 cells, without US, concentration of BP up to 120 µM, CCK‐8) | cytotoxicity against HUVECs [3] | cytotoxicity against L929 [4] | hematological indices (routine blood, blood biochemistry) ([5]; compared to control) | histopathology of major organs (H&E) [5] | survival of 4T1 cells ([2]; CCK‐8)
1 | CC(C)C[C@H](NC(=O)[C@H](CCCCN)NC(=O)[C@H](C)NC(=O)[C@H](CC(C)C)NC(=O)[C@H](CCCCN)NC(=O)[C@H](CC(C)C)NC(=O)[C@@H](NC(=O)[C@H](Cc1ccccc1)NC(=O)[C@H](Cc1ccccc1)NC(=O)[C@H](Cc1ccccc1)NC(=O)[C@H](CS)NC(=O)CCCCCOc1cc(C(=O)c2ccc3ccc4cccc5ccc2c3c45)cc(C(=O)c2ccc3ccc4cccc5ccc2c3c45)c1)C(C)C)C(=O)N[C@@H](C)C(=O)N[C@@H](CCCCN)C(=O)N[C@@H](CC(=O)O)C(=O)N[C@@H](CCC(=O)O)C(=O)N[C@H](C(=O)N[C@@H](CC(=O)O)C(=O)N[C@@H](C)C(=O)N[C@@H](CCCCN)C(=O)N[C@@H](CCCNC(=N)N)C(=O)NCC(=O)N[C@@H](C)C(=O)N[C@@H](CCCNC(=N)N)C(=O)N[C@@H](CO)C(=O)N[C@H](C(=O)N[C@@H](C)C(=O)O)[C@@H](C)O)C(C)C [PAHN-1] (X1-CFFFVLKLAKLAKDEVDAKRGARSTA-OH) | relatively greater tumor accumulation | 24 h | less than 20% | higher than 80% | negligible cytotoxicity | negligible cytotoxicity | negligible variations | neither significant histopathological changes nor abnormal inflammatory responses | 
2 | CC(C)C[C@H](NC(=O)[C@H](CCCCN)NC(=O)[C@H](C)NC(=O)[C@H](CC(C)C)NC(=O)[C@H](CCCCN)NC(=O)[C@H](CC(C)C)NC(=O)[C@@H](NC(=O)[C@H](Cc1ccccc1)NC(=O)[C@H](Cc1ccccc1)NC(=O)[C@H](Cc1ccccc1)NC(=O)[C@H](CS)NC(=O)CCCCCOc1cc(C(=O)c2ccc3ccc4cccc5ccc2c3c45)cc(C(=O)c2ccc3ccc4cccc5ccc2c3c45)c1)C(C)C)C(=O)N[C@@H](C)C(=O)N[C@@H](CCCCN)C(=O)N[C@@H](CC(=O)O)C(=O)N[C@@H](CCC(=O)O)C(=O)N[C@H](C(=O)N[C@@H](CC(=O)O)C(=O)N[C@@H](C)C(=O)N[C@@H](CCCCN)C(=O)N[C@@H](CC(=O)O)C(=O)NCC(=O)N[C@@H](C)C(=O)N[C@@H](CCC(=O)O)C(=O)N[C@@H](CO)C(=O)N[C@@H](Cc1c[nH]cn1)C(=O)N[C@@H](Cc1c[nH]cn1)C(=O)O)C(C)C [PAHN-2] (X1-CFFFVLKLAKLAKDEVDAKDGAESHH-OH) | tended to accumulate in the liver and spleen |  |  |  |  |  |  |  | no evident change
3 | CC(C)C[C@H](NC(=O)[C@@H](NC(=O)[C@H](Cc1ccccc1)NC(=O)[C@H](Cc1ccccc1)NC(=O)[C@H](Cc1ccccc1)NC(=O)[C@H](CS)NC(=O)CCCCCOc1cc(C(=O)c2ccc3ccc4cccc5ccc2c3c45)cc(C(=O)c2ccc3ccc4cccc5ccc2c3c45)c1)C(C)C)C(=O)N[C@@H](CCCCN)C(=O)N[C@@H](CCCCN)C(=O)N[C@@H](CCCCN)C(=O)N[C@@H](CC(=O)O)C(=O)N[C@@H](CCC(=O)O)C(=O)N[C@H](C(=O)N[C@@H](CC(=O)O)C(=O)N[C@@H](C)C(=O)N[C@@H](CCCCN)C(=O)N[C@@H](CCCNC(=N)N)C(=O)NCC(=O)N[C@@H](C)C(=O)N[C@@H](CCCNC(=N)N)C(=O)N[C@@H](CO)C(=O)N[C@H](C(=O)N[C@@H](C)C(=O)O)[C@@H](C)O)C(C)C [PAHN-3] (X1-CFFFVLKKKDEVDAKRGARSTA-OH) |  |  |  |  |  |  |  |  | no evident change
